Experimental data taken from patent US20180085456A1 (AFFIMED, published 2018).

Target: T1, CD30 on CD30+ lymphoma cells (KARPAS-299) (UniProt P28908 19-595, limits assumed)
T1 sequence (looked up): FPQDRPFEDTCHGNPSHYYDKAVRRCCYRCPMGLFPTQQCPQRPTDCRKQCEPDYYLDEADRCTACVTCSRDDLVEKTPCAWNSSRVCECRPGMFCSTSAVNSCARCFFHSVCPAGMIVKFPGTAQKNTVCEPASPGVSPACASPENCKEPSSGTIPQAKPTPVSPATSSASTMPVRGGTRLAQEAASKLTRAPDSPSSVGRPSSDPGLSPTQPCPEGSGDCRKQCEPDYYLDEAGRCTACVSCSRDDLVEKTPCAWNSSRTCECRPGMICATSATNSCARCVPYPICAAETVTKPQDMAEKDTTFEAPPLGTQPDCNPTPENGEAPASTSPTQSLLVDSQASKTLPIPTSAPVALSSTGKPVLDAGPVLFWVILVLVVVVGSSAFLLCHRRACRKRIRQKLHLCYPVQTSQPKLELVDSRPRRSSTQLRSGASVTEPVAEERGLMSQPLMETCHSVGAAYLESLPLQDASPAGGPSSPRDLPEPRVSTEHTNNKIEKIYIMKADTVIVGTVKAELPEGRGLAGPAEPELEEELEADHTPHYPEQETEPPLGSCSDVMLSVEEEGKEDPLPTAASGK
Assay: cell-based or functional assay

B1: bispecific CD30/CD16A tandem diabody (AFM13) (bispecific antibody)
chain: QVQLVQSGAEVKKPGESLKVSCKASGYTFTSYYMHWVRQAPGQGLEWMGIINPSGGSTSYAQKFQGRVTMTRDTSTSTVYMELSSLRSEDTAVYYCARGSAYYYDFADYWGQGTLVTVSSGGSGGSGGSDIVMTQSPKFMSTSVGDRVTVTCKASQNVGTNVAWFQQKPGQSPKVLIYSASYRYSGVPDRFTGSGSGTDFTLTISNVQSEDLAEYFCQQYHTYPLTFGGGTKLEINGGSGGSGGSQVQLQQSGAELARPGASVKMSCKASGYTFTTYTIHWVRQRPGHDLEWIGYINPSSGYSDYNQNFKGKTTLTADKSSNTAYMQLNSLTSEDSAVYYCARRADYGNYEYTWFAYWGQGTTVTVSSGGSGGSGGSSYVLTQPSSVSVAPGQTATISCGGHNIGSKNVHWYQQRPGQSPVLVIYQDNKRPSGIPERFSGSNSGNTATLTISGTQAMDEADYYCQVWDNYSVLFGGGTKLTVL
potency and efficacy toward target and effector cells (EC50): 0.015 nM
